# The supplement of paper PMC7125110
# ± gives the standard error. This sample holds only a part of the variants without activity.
# B1: glmS ribozyme (parent)
# chain: AUAAAAGCGCCAGAACUACAGAAAUGUAGUUGACGAGGAGGAGGUUUAUCGAAUUUUCGGCGGAUGCCUCCAAA
# How the values were obtained:
# Settings in all cases: with glucosamine-6-phosphate
# [1] = variants of: B1; assay: self-cleavage kobs at 40 uM GlcN6P; higher = faster cleavage; RNA array
# Summary of the method: (§1)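 kobs was derived by fitting per-tile medians to one- or two-exponential decays after normalising signals to baseline and to non-cleaving reference variants. Those signals came from barcoded ribozyme variants transcribed in situ by E. coli RNA polymerase on sequenced MiSeq chips, followed through a hybridised Cy3 probe at 37 °C and imaged over ~14 h. Glucosamine-6-phosphate (40 μM to 10 mM) in HEPES/KCl/Mg(OAc)2 buffer was flowed in. Weighted Michaelis–Menten fits across concentrations then gave kcat and KM.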
# [2] = variants of: B1; assay: self-cleavage kobs at 640 uM GlcN6P; higher = faster cleavage; RNA array
# Summary of the method: as §1
# [3] = variants of: B1; assay: self-cleavage kobs at 2500 uM GlcN6P; higher = faster cleavage; RNA array
# Summary of the method: as §1
# [4] = variants of: B1; assay: self-cleavage kobs at 10000 uM GlcN6P; higher = faster cleavage; RNA array
# Summary of the method: as §1
# [5] = variants of: B1; assay: self-cleavage kobs at 160 uM GlcN6P; higher = faster cleavage; RNA array
# Summary of the method: as §1
Variant,self-cleavage kobs at 40 uM GlcN6P [1] [s⁻¹],self-cleavage kobs at 640 uM GlcN6P [2] [s⁻¹],self-cleavage kobs at 2500 uM GlcN6P [3] [s⁻¹],self-cleavage kobs at 10000 uM GlcN6P [4] [s⁻¹],self-cleavage kobs at 160 uM GlcN6P [5] [s⁻¹]
A64C C68G C70G,< 1e-05,< 1e-05,< 1e-05,–,–
A33G G44U C67U,< 1e-05,–,–,< 1e-05,–
A36U C67U C70G,7.02e-05 ± 2.8e-05,–,–,3.53e-05 ± 1.7e-05,–
G9A G13A A14C C61A,< 1e-05,–,–,< 1e-05,–
G7A C34A,< 1e-05,< 1e-05,< 1e-05,< 1e-05,< 1e-05
C10G U30G G40U,< 1e-05,–,–,–,–
A12U A33C G37C,< 1e-05,–,–,< 1e-05,–
G13C A33U A39G U47C C61U,< 1e-05,–,–,–,–
C8U G29A,< 1e-05,–,< 1e-05,–,–
A6C A42U,< 1e-05,< 1e-05,–,< 1e-05,< 1e-05
A39C A48C U55C C58U,< 1e-05,< 1e-05,< 1e-05,–,–
G40A G62U,< 1e-05,< 1e-05,–,< 1e-05,< 1e-05
C8G U30A,< 1e-05,< 1e-05,–,< 1e-05,< 1e-05
C50G G66A C70A,7.79e-05 ± 2.3e-05,–,–,–,–
C16A G43U C68G C71U,< 1e-05,–,–,–,–
A6G A14G G32C G44A A53C U65G C68U,< 1e-05,–,< 1e-05,–,–
C8U A15G C34U G35U A36U C68A,< 1e-05,< 1e-05,–,–,< 1e-05
U56C C61A,< 1e-05,< 1e-05,–,–,< 1e-05
A33C G59C,< 1e-05,< 1e-05,< 1e-05,< 1e-05,< 1e-05
C11A G32C,< 1e-05,–,–,–,–
C8U A12C G40A U45G G60A G66U,< 1e-05,–,–,–,–
A15C A52U A53G U56C,< 1e-05,–,–,< 1e-05,–
A14C A33U A53U U56G,< 1e-05,–,–,2.92e-05 ± 1.4e-05,–
G13C G60A,< 1e-05,< 1e-05,< 1e-05,< 1e-05,< 1e-05
A52U A64G U69A,< 1e-05,–,–,–,–
C34U G37C A53G,< 1e-05,–,–,–,–

Variant,self-cleavage kobs at 40 uM GlcN6P [1] [s⁻¹],self-cleavage kobs at 640 uM GlcN6P [2] [s⁻¹],self-cleavage kobs at 2500 uM GlcN6P [3] [s⁻¹],self-cleavage kobs at 10000 uM GlcN6P [4] [s⁻¹],self-cleavage kobs at 160 uM GlcN6P [5] [s⁻¹]
A39U G66U C67U,3.54e-05 ± 1.2e-05,–,–,–,–
A39C G63U,< 1e-05,< 1e-05,–,< 1e-05,–
G7U G9C G35C A36U U49A U56A,< 1e-05,–,–,–,–
C10U C34G C58U,< 1e-05,–,–,–,–
U30A U56C A64G,< 1e-05,–,–,2.96e-05 ± 1.4e-05,–
G43U C50U U55G,< 1e-05,< 1e-05,< 1e-05,–,–
G9U C16G C71U,< 1e-05,–,< 1e-05,–,–
U30C G32C G44U C50U,< 1e-05,–,–,< 1e-05,–
C58G A64G C68A,4.76e-05 ± 1.8e-05,0.00061 ± 0.00029,5.81e-05 ± 2.1e-05,–,–
A36G C67U,< 1e-05,–,–,–,–
C16A G43A,< 1e-05,–,–,–,–
A12U C70G,0.000124 ± 1.2e-05,0.000558 ± 0.00013,–,0.001 ± 0.00029,0.000175 ± 2.3e-05
G13C G66C,< 1e-05,< 1e-05,–,–,–
G35C A42U U45C G59U,< 1e-05,–,–,–,–
G32C G40A,< 1e-05,–,–,1.99e-05 ± 7.3e-06,< 1e-05
C11U A14U G43U U54A G63A,< 1e-05,–,< 1e-05,–,–
G35C G63A,< 1e-05,< 1e-05,–,< 1e-05,< 1e-05
G60C C67A,< 1e-05,–,< 1e-05,–,–
A14G A52G,9.65e-05 ± 1.7e-05,0.00106 ± 0.00018,0.00234 ± 0.00051,0.00467 ± 0.001,0.000152 ± 4e-05
C11G A33C,< 1e-05,–,< 1e-05,–,< 1e-05
A53G C68U,0.000296 ± 4.8e-05,0.00399 ± 0.00064,0.00239 ± 0.00052,0.00554 ± 0.0012,0.00034 ± 7.7e-05
C8G G38U G60U,< 1e-05,–,–,–,–
G9A C58U C61G,< 1e-05,–,–,< 1e-05,–
G40A C67A,< 1e-05,0.000183 ± 5.8e-05,0.000262 ± 0.00011,–,–
C10U A33U A52U,< 1e-05,< 1e-05,–,< 1e-05,–
C11G U31A,< 1e-05,< 1e-05,–,–,< 1e-05

Variant,self-cleavage kobs at 40 uM GlcN6P [1] [s⁻¹],self-cleavage kobs at 640 uM GlcN6P [2] [s⁻¹],self-cleavage kobs at 2500 uM GlcN6P [3] [s⁻¹],self-cleavage kobs at 10000 uM GlcN6P [4] [s⁻¹],self-cleavage kobs at 160 uM GlcN6P [5] [s⁻¹]
A12G G32A A33U C70G,< 1e-05,< 1e-05,–,–,< 1e-05
A39C G51C C71G,< 1e-05,–,–,< 1e-05,–
A33G A64U,< 1e-05,–,–,< 1e-05,–
G41C A48U,< 1e-05,< 1e-05,–,–,< 1e-05
G9A A15U G63U,< 1e-05,–,–,–,–
A12U A36G,< 1e-05,–,–,–,< 1e-05
A42C A64G,< 1e-05,< 1e-05,–,–,< 1e-05
C11U A36C C61U,< 1e-05,< 1e-05,–,–,–
G13A A36U A48G C50G C61G,0.000674 ± 0.00026,–,–,–,–
U47A U56A,0.00024 ± 5.3e-05,0.00196 ± 0.00027,0.00548 ± 0.0015,0.0235 ± 0.0091,0.000539 ± 0.0001
G51C C58A C70A,< 1e-05,–,–,–,–
G9A C34A G44U U54A C68A,< 1e-05,–,–,–,–
G37C A42C,< 1e-05,–,< 1e-05,–,< 1e-05
C34A G37C G60U,< 1e-05,–,–,< 1e-05,–
A14U G41U G44U,< 1e-05,< 1e-05,–,< 1e-05,< 1e-05
C8U C10A C50A,< 1e-05,–,–,–,–
U47G A52G U69C,6.7e-05 ± 2.4e-05,–,–,9.36e-05 ± 1.5e-05,–
A36C G62A,< 1e-05,–,< 1e-05,–,< 1e-05
A6C A64U,< 1e-05,< 1e-05,–,< 1e-05,< 1e-05
G38C U56A,< 1e-05,–,< 1e-05,–,–
A14G U55C C70U,6.64e-05 ± 2.1e-05,–,–,0.00236 ± 0.00041,–
A14C G32A A42U U54G,< 1e-05,–,–,–,–
U54C U65A,6.51e-05 ± 8.4e-06,0.00147 ± 0.00042,–,0.00332 ± 0.00031,–
A42C C61U C71A,< 1e-05,–,–,–,–
A15C G35U C50U,< 1e-05,–,< 1e-05,< 1e-05,–
A14C U57C U69C,< 1e-05,–,–,–,–

Variant,self-cleavage kobs at 40 uM GlcN6P [1] [s⁻¹],self-cleavage kobs at 640 uM GlcN6P [2] [s⁻¹],self-cleavage kobs at 2500 uM GlcN6P [3] [s⁻¹],self-cleavage kobs at 10000 uM GlcN6P [4] [s⁻¹],self-cleavage kobs at 160 uM GlcN6P [5] [s⁻¹]
G41C G63A A64G,< 1e-05,–,–,< 1e-05,–
G7C G13C G63U C70G,< 1e-05,< 1e-05,< 1e-05,< 1e-05,–
A36G A53G,< 1e-05,< 1e-05,–,–,< 1e-05
G13C G43A G63A A64G,< 1e-05,–,–,< 1e-05,–
C10A G40U G41A C70A,< 1e-05,–,–,< 1e-05,–
G37C U46A,< 1e-05,< 1e-05,–,< 1e-05,< 1e-05
A14G C16U G41U,0.000207 ± 7.3e-05,–,–,0.00243 ± 0.00096,–
A36G A64G U69G,< 1e-05,–,–,–,–
A18G C70A,4.53e-05 ± 2.1e-05,–,–,0.000432 ± 0.00014,–
C8U G38C G43A G44C G63U,< 1e-05,–,–,< 1e-05,–
G40C G41A C70U,8.35e-05 ± 2.8e-05,–,0.000861 ± 0.00023,–,–
A12G A33G C34U A48C C71G,< 1e-05,–,–,–,–
G9U U45G C50G,< 1e-05,< 1e-05,–,< 1e-05,< 1e-05
A12C A14C G60A A64C,< 1e-05,–,–,–,–
G35C A64U,< 1e-05,< 1e-05,< 1e-05,< 1e-05,< 1e-05
A15G G41A,0.000137 ± 1.9e-05,0.000767 ± 0.00025,0.0013 ± 0.00038,0.00309 ± 0.00072,0.000239 ± 4.1e-05
U49C U57C,< 1e-05,< 1e-05,–,< 1e-05,< 1e-05
G7A A36C,< 1e-05,–,–,< 1e-05,< 1e-05
A36G U65G,< 1e-05,< 1e-05,< 1e-05,< 1e-05,< 1e-05
G9C C11G G40A,< 1e-05,–,–,< 1e-05,–
U31C G35A,< 1e-05,< 1e-05,< 1e-05,< 1e-05,< 1e-05
U69C C71G,3.93e-05 ± 1.3e-05,6.76e-05 ± 1.6e-05,7.01e-05 ± 1.5e-05,6.79e-05 ± 9e-06,0.000225 ± 0.00011
U45G G63U A64C,< 1e-05,< 1e-05,–,–,–
